B1: target 1 U8G,C22U (mixed)
RNA 1: CACCCGUGCAAAAAUGCAGGGGUCUAAAACUGAGCGGAUAACCUCUCUAUGG
RNA 2: GGGAAUGGAUCCACAUCUACGAAUUCGUAUCAUAGAGAGGUUAGCCGCUCACCGAGAUCGGAAGAGCACACGU
B2: target 1 insC 3' of 11 (mixed)
RNA 1: B1 RNA 1
RNA 2: GGGAAUGGAUCCACAUCUACGAAUUCGUACCAUAGAGAGGUCUAUCCGCUCACCGAGAUCGGAAGAGCACACGU
B3: target 1 insC 3' of 12,insG 3' of 10 (mixed)
RNA 1: B1 RNA 1
RNA 2: GGGAAUGGAUCCACAUCUACGAAUUCGUACCAUAGAGAGGCUUGAUCCGCUCACCGAGAUCGGAAGAGCACACGU
B4: target 1 G5U,C6U (mixed)
RNA 1: B1 RNA 1
RNA 2: B1 RNA 2 with U30C, G44U, C46U, G47U
B5: target 1 complement block 10-12 (mixed)
RNA 1: B1 RNA 1
RNA 2: B1 RNA 2 with U30C, G40C, U41A, U42A, G44U
B6: target 1 del9,del22 (mixed)
RNA 1: B1 RNA 1
RNA 2: GGGAAUGGAUCCACAUCUACGAAUUCGUACAUAGAGAGGUUUCCGCUCACCGAGAUCGGAAGAGCACACGU
B7: target 1 insU 3' of 17,insA 3' of 10 (mixed)
RNA 1: B1 RNA 1
RNA 2: B3 RNA 2 with A36U, G37A, A38G, G39A, C41G, G44A
B8: target 1 insA 3' of 10,insC 3' of 5 (mixed)
RNA 1: B1 RNA 1
RNA 2: B3 RNA 2 with C41U, U43A, G44A, A45U, U46C, C48G, G49C
B9: target 1 insU 3' of 20,insG 3' of 16 (mixed)
RNA 1: B1 RNA 1
RNA 2: B3 RNA 2 with A34U, G35A, A36G, G37A, A38G, G40A, C41G, U42G, G44U
B10: target 1 insC 3' of 22,insC 3' of 15 (mixed)
RNA 1: B1 RNA 1
RNA 2: GGGAAUGGAUCCACAUCUACGAAUUCGUACCCAUAGAGCAGGUUAUCCGCUCACCGAGAUCGGAAGAGCACACGU
B11: target 1 C4A,U8C (mixed)
RNA 1: B1 RNA 1
RNA 2: B1 RNA 2 with U30C, G44C, C48A
B12: target 1 G15A,U19C (mixed)
RNA 1: B1 RNA 1
RNA 2: B1 RNA 2 with U30C, U33C, G37A, G44U
B13: target 1 insA 3' of 21,insU 3' of 9 (mixed)
RNA 1: B1 RNA 1
RNA 2: B10 RNA 2 with C32A, C39A, A40G, G42U, U44A, A45U
B14: target 1 U11C,G13U (mixed)
RNA 1: B1 RNA 1
RNA 2: B1 RNA 2 with U30C, G39U, U41C, G44U

Substitutions are numbered along the chain they refer to. Names may count otherwise.

The Kd is the constant that tells how readily two partners part at equilibrium.

The target of this series is T1, EsCas13d, nuclease-dead (Eubacterium siraeum, UniProt B0MS50, R295A;H300A;R849A;H854A).
T1 sequence: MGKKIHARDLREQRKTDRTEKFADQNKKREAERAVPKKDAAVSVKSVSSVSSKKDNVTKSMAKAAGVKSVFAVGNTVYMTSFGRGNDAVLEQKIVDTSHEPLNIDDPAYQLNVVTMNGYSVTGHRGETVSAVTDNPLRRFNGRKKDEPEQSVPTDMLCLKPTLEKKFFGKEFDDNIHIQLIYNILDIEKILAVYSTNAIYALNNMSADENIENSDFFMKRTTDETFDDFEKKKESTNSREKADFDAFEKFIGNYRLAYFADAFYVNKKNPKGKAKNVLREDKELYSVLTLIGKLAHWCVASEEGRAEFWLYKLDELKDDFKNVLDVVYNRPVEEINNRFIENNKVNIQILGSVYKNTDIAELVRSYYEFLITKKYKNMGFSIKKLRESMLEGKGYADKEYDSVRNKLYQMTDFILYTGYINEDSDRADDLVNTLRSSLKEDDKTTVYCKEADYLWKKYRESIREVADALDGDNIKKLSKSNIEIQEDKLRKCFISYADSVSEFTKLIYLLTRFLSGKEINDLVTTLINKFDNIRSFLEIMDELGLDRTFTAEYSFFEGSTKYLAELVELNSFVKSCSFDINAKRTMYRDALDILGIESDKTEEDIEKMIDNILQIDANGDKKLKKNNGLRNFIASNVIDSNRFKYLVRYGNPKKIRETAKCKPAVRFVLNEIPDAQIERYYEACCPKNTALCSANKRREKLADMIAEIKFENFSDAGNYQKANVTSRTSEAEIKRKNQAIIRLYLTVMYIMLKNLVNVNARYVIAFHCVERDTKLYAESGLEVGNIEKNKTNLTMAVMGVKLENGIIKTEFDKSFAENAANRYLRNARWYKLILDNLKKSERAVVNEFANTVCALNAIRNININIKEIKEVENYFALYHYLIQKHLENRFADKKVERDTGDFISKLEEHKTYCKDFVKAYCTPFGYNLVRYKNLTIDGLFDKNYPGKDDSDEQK
The series can be described thus: crRNA (strand 1, pre-loaded); Mg2+; 40 mM Tris-HCl pH 7.5, 150 mM NaCl, 6 mM MgCl2, 1 mM DTT, 0.1% Tween-20, 0.2 mg/ml BSA; 25 C; 10 min per concentration, then washed. To be noted: tags: His6-TwinStrep-SUMO cleaved; N-terminal SNAP kept (SNAP-Surface 488); label: 3' end held by stalled T7 RNA polymerase.
B1 yielded a dissociation constant (Kd) of 29.7 ± 2.6 nM.

Molecule B2 came in with a Kd of 29.8 ± 3.1 nM.

In turn, B3 came in with a Kd of 12.3 ± 0.5 nM.

B4: binding was put at a Kd of 48 ± 4 nM. This Kd is about 3.9-fold higher than that of the molecule before.

B5: the Kd worked out at 6.8 ± 0.4 nM.

B6 came in with a Kd of 69 ± 9 nM.

Regarding B7, the dissociation constant Kd was 25.2 ± 3.4 nM.

In turn, B8 returned a Kd of 10.1 ± 0.5 nM.

B9 showed a Kd of 36 ± 4 nM.

Take B10: binding was put at a Kd of 40 ± 7 nM.

B11 had a dissociation constant Kd of 5.2 ± 0.6 nM.

B12: binding was characterised by a dissociation constant (Kd) of 61 ± 20 nM.

In turn, B13 gave a Kd of 24.4 ± 2.1 nM. Compared with the last molecule, the Kd is about 2.5-fold lower.

In the case of B14, the Kd was 60 ± 10 nM.

Source of the values: article PMC10786891, “Massively parallel profiling of RNA-targeting CRISPR-Cas13d”.
